Measured values reported in publication PMC10688334, “Toward the understanding of DSG2 and CD46 interaction with HAdV-11 fiber, a super-complex analysis” (Journal of Virology, 2023).

B1: recombinant CD46 SCR1-SCR2 domains (domain or fragment, human, UniProt P15529 35-160, looked up)
chain: CEEPPTFEAMELIGKPKPYYEIGERVDYKCKKGYFYIPPLATHTICDRNHTWLPVSDDACYRETCPYIRDPLNGQAVPANGTYEFGYQMHFICNEGYYLIGEEILYCELKGSVAIWSGKPPICEKV
notes: hCD46, the two first extracellular domains (SCR1, SCR2), residues C35-V160 of Swiss-Prot P15529; gene synthesised by GenScript; Cloned in the same vector pHL-sec as rDSG2 (secretion signal, C-terminal His6); also called rCD46; soluble rCD46; source: HEK293 F, transiently transfected, secreted, purified from supernatant (His GraviTrap, Superdex 200)
B2: human HAdV-11 fiber knob, wild type (domain or fragment)
chain: DDNINTLWTGVNPTEANCQIMNSSESNDCKLILTLVKTGALVTAFVYVIGVSNNFNMLTTHRNINFTAELFFDSTGNLLTRLSSLKTPLNHKSGQNMATGAITNAKGFMPSTTAYPFNDNSREKENYIYGTCYYTASDRTAFPIDISVMLNRRAINDETSYCIRITWSWNTGDAPEVQTSATTLVTSPFTFYYIREDD
notes: HAdV-11 fiber protein, knob, residues D128 to D325 of Swiss-Prot P35774; gene synthesised by GenScript; Trimeric form purified; amine-coupled to the biosensor in the kinetic BLI; also called HAd11K; HAd11 knob; not shown: His6, N-terminal, kept
B3: recombinant DSG2 EC2-EC3 extracellular domains (domain or fragment, human, UniProt Q14126 149-386, looked up)
chain: VLDINDNEPVFTQDVFVGSVEELSAAHTLVMKINATDADEPNTLNSKISYRIVSLEPAYPPVFYLNKDTGEIYTTSVTLDREEHSSYTLTVEARDGNGEVTDKPVKQAQVQIRILDVNDNIPVVENKVLEGMVEENQVNVEVTRIKVFDADEIGSDNWLANFTFASGNEGGYFHIETDAQTNEGIVTLIKEVDYEEMKNLDFSVIVANKAAFHKSIRSKYKPTPIPIKVKVKNVKEGI
notes: desmoglein 2 (DSG2), human, EC2-EC3 domains, residues V149-I386 of Swiss-Prot Q14126.2; Cloned AgeI/KpnI in pHL-sec, which supplies a secretion signal and the C-terminal His6; also called rDSG2; soluble rDSG2; source: HEK293 F, transiently transfected, secreted, purified from supernatant (His GraviTrap, Superdex 200)

Tests used:
[1] = molecular target: B2; experiment: cryo-EM structure; SEC fraction of HAd11K/rDSG2/rCD46 super-complex (rDSG2:rCD46 3:1); details: both partners purified
[2] = molecular target: B2; experiment: BLI; HAd11K (WT or D265A), 100 µg/mL in 10 mM sodium acetate pH 4, amine-coupled to AR2G biosensor; rDSG2 or rCD46 0.7-10.8 µM in HBS-P (10 mM HEPES, 145 mM NaCl, 0.005% P20, pH 7.4) with 3 mM CaCl2; room temperature; association 180 s, dissociation 120 s; global fit; details: both partners purified
[3] = molecular target: B3; experiment: as above; details: both partners purified
[4] = molecular target: the molecule itself; experiment: cryo-EM structure; HAd11K in complex with rDSG2; two populations (one or two rDSG2 per knob trimer)

Binder | stoichiometry N [1] | Kd [2] | koff [2] | kon [2] | Kd [3] | koff [3] | kon [3] | stoichiometry N [4]
B1 | 1 | 243 nM | 0.005 s⁻¹ | 22800 M⁻¹ s⁻¹ |  |  |  | 
B2 |  |  |  |  | 2900 nM | 0.114 s⁻¹ | 39400 M⁻¹ s⁻¹ | 3
B3 | 1 |  |  |  |  |  |  | 
